Measured values: publication PMC7431086, “Molecular basis of the selective processing of short mRNA substrates by the DcpS mRNA decapping enzyme” (Proceedings of the National Academy of Sciences of the …, 2020)

Target: the molecule itself
Test: crystal structure; DcpS (8-350, H268N) in 1:1 complex with m7GpppGU RNA, 5 mg/mL, 10 mM Hepes pH 7.5, 100 mM NaCl, 1.6 M NH4SO4; space group P212121, two dimers per asymmetric unit; 2.9 A

B1: DcpS from S. cerevisiae (residues 8-350; H268N) (enzyme, UniProt Q06151 8-350, looked up)
chain: FASLIKRFQFVSVLDSNPQTKVMSLLGTIDNKDAIITAEKTHFLFDETVRRPSQDGRSTPVLYNCENEYSCINGIQELKEITSNDIYYWGLSVIKQDMESNPTAKLNLIWPATPIHIKKYEQQNFHLVRETPEMYKRIVQPYIEEMCNNGRLKWVNNILYEGAESERVVYKDFSEENKDDGFLILPDMKWDGMNLDSLYLVAIVYRTDIKTIRDLRYSDRQWLINLNNKIRSIVPGCYNYAVHPDELRILVHYQPSYYHFNIHIVNIKHPGLGNSIAAGKAILLEDIIEMLNYLGPEGYMNKTITYAIGENHDLWKRGLEEELTKQLERDGIPKIPKIVNGFK
notes: Crystallised as a 1:1 complex with the capped dinucleotide m7GpppGU; also called Dcs1p; Scavenger Decapping Enzyme
- binding result: binds
